From patent US5928931A, “Isolation, purification and cloning of retinol dehydratase” (Cornell Research Foundation, Inc., priority 1997, dated 1999)

T1: retinol dehydratase (Spodoptera frugiperda, UniProt Q26490)
T1 sequence (Q26490 1-351): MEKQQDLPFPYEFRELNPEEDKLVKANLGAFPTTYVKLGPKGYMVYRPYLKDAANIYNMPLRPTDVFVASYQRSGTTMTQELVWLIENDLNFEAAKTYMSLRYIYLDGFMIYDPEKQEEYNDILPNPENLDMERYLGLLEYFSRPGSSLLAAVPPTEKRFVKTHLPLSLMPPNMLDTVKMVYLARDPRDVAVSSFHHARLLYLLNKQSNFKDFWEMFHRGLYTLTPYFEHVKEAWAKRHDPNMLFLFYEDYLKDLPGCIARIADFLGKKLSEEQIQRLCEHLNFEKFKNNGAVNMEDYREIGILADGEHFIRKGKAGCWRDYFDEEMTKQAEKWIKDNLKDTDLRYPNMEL

B1: Recombinant retinol dehydratase: 352 amino acid, 41.5 kDa enzyme of Sf-21 cells, expressed in bacteria with HisTag, SEQ. ID. No. 2 (protein)
chain: MEKQQDLPFPYEFRELNPEDKLVKANLGAFPTTYVKLGPKGYMVYRPYLKDAANIYNMPLRPTDVFVASYQRSGTTMTQELVWLIENDLNFEAAKTYMSLRYIYLDGFMIYDPEKQEEYNDILPNPENLDMERYLGLLEYFSRPGSSLLAAVPPTEKRFVKTHLPLSLMPPNMLDTVKMVYLARDPRDVAVSSFHHARLLYLLNKQSNFKDFWEMFHRGLYTLTPYFEHVKEAWAKRHDPNMLFLFYEDYLKDLPGCIARIADFLGKKLSEEQIQRLCEHLNFEKFKNNGAVNMEDYREIGILADGEHFIRKGKAGCWRDYFDEEMTKQAEKWIKDNLKDTDLRYPNMEL
modifications: His tag
B2: EGF: epidermal growth factor, purchased (protein, UniProt P01133 23-1207, looked up)
Pro-epidermal growth factor: PQHWSCPEGTLAGNGNSTCVGPAPFLIFSHGNSIFRIDTEGTNYEQLVVDAGVSVIMDFHYNEKRIYWVDLERQLLQRVFLNGSRQERVCNIEKNVSGMAINWINEEVIWSNQQEGIITVTDMKGNNSHILLSALKYPANVAVDPVERFIFWSSEVAGSLYRADLDGVGVKALLETSEKITAVSLDVLDKRLFWIQYNREGSNSLICSCDYDGGSVHISKHPTQHNLFAMSLFGDRIFYSTWKMKTIWIANKHTGKDMVRINLHSSFVPLGELKVVHPLAQPKAEDDTWEPEQKLCKLRKGNCSSTVCGQDLQSHLCMCAEGYALSRDRKYCEDVNECAFWNHGCTLGCKNTPGSYYCTCPVGFVLLPDGKRCHQLVSCPRNVSECSHDCVLTSEGPLCFCPEGSVLERDGKTCSGCSSPDNGGCSQLCVPLSPVSWECDCFPGYDLQLDEKSCAASGPQPFLLFANSQDIRHMHFDGTDYGTLLSQQMGMVYALDHDPVENKIYFAHTALKWIERANMDGSQRERLIEEGVDVPEGLAVDWIGRRFYWTDRGKSLIGRSDLNGKRSKIITKENISQPRGIAVHPMAKRLFWTDTGINPRIESSSLQGLGRLVIASSDLIWPSGITIDFLTDKLYWCDAKQSVIEMANLDGSKRRRLTQNDVGHPFAVAVFEDYVWFSDWAMPSVMRVNKRTGKDRVRLQGSMLKPSSLVVVHPLAKPGADPCLYQNGGCEHICKKRLGTAWCSCREGFMKASDGKTCLALDGHQLLAGGEVDLKNQVTPLDILSKTRVSEDNITESQHMLVAEIMVSDQDDCAPVGCSMYARCISEGEDATCQCLKGFAGDGKLCSDIDECEMGVPVCPPASSKCINTEGGYVCRCSEGYQGDGIHCLDIDECQLGEHSCGENASCTNTEGGYTCMCAGRLSEPGLICPDSTPPPHLREDDHHYSVRNSDSECPLSHDGYCLHDGVCMYIEALDKYACNCVVGYIGERCQYRDLKWWELRHAGHGQQQKVIVVAVCVVVLVMLLLLSLWGAHYYRTQKLLSKNPKNPYEESSRDVRSRRPADTEDGMSSCPQPWFVVIKEHQDLKNGGQPVAGEDGQAADGSMQPTSWRQEPQLCGMGTEQGCWIPVSSDKGSCPQVMERSFHMPSYGTQTLEGGVEKPHSLLSANPLWQQRALDPPHQMELTQ
modifications: Pro-epidermal growth factor
notes: epidermal growth factor, purchased

Key:
retinol dehydratase [1] = target: T1, retinol dehydratase; test: Retinol dehydratase assay ([3H]-retinol to [3H]-AR, HPLC radiomatic detection); kinetic studies; assay type: biochemical; details: bacterially expressed recombinant enzyme
Protocol: 20-50 μl aliquots of supernatant/column fractions were incubated with 1 μCi of [^3 H]-retinol and 20 μl of high speed supernatant from sonicated Sf-9 cells in 200 μl assay buffer (20 mM Tris.Cl pH 7.5, 150 mM NaCl, I mM MgCI2) for 15-60 minutes at 24° C. […] Samples were delipidated and [^3 H]-AR production quantified by a liquid scintillation radiomatic detector in series with HPLC gradient elution (20 mM Tris pH 7.4/methanol/chloroform) from a C-18 Reverse Phase 201TP54 column (Vydac, Separations Group, Hesperia, Calif.) as described by McClean et al., Clin. Chem., 28:693-96 (1982) and Derguini et al., Angew. Che. Int. Ed. Engl., 33:1839-41 (1994), which are hereby incorporated by reference.
Kinetic studies were performed with native retinol dehydratase (0.1 μg/assay) and ^3 H-retinol in the presence of constant substrate carrier protein concentrations, either delipidated BSA or recombinant cellular retinol binding protein ("CRBP"). The initial rate of AR synthesis at different substrate concentrations was determined by radiomatic detection of ^3 H-AR after HPLC separation.
Carrier protein for retinol (delipidated bovine serum albumin or recombinant human CRBP) was added to reduce nonspecific binding and micelle formation.

retinol dehydratase [2] = target: T1, retinol dehydratase; test: Fluorimetric titration of recombinant retinol dehydratase with retinol (direct binding, no cofactor); details: recombinant enzyme; for number of (high affinity) binding sites per molecule: retinol titration
Protocol: Binding was monitored by following the fluorescence enhancement of retinol (excitation--330 nm; emission--480 nm, open circles). The fluorescence contribution of free retinol was determined by titration with retinol in the absence of protein (open squares), analyzed by linear regression analysis (dashed line) and subtracted from the titration data to give the corrected titration binding curve (closed circles). The data were fitted (solid line) using an equation derived from simple binding theory.
Retinol is an efficient fluorophore and its interactions with proteins are often accompanied by a marked increase in its fluorescence. This phenomenon reflects movement of retinol from the aqueous solution to a less polar and more restrictive environment within a protein binding site, and has been extensively used to monitor the binding of retinol to binding proteins, as described by Cogan et al., Eur. J. Biochem., 65:71-75 (1976); Ong et al., J. Biol Chem., 253:828-32 (1978); and Noy et al., Biochemistry, 30:6380-86 (1991), which are hereby incorporated by reference.
Recombinant retinol dehydratase (lμM) was titrated with retinol from a concentrated solution in ethanol (final ethanol concentration <2.0%). Binding was monitored by following the fluorescence enhancement of retinol (excitation--330 nm; emission--480 nm, open circles). The fluorescence contribution of free retinol was determined by titration with retinol in the absence of protein (FIG. 5B, open squares), analysed by linear regression analysis (FIG. 5B, dashed line) and subtracted from the titration data to give the corrected titration binding curve (FIG. 5B, closed circles). The data were fitted (FIG. 5B, solid line) using an equation derived from simple binding theory as described in Norris et al., Biochim Bioshys Acta, 1209:10-8 (1994), which is hereby incorporated by reference, to yield the number of binding sites (8%) and the equilibrium dissociation constant (Kd =9 nM).
The derived Kd should thus be considered an upper limit for the actual value. Nevertheless, it agreed with the Km, confirming retinol dehydratase has a high affinity binding site for free retinol.

NIH 3T3 cells = test: Activation of resting serum-starved NIH 3T3 cells ([3H]thymidine incorporation); assay type: cell-based
Protocol: FIGS. 6A and 6B show the activation of resting NIH 3T3 cells. In FIG. 6(a), one to four day serum-starved cells activated by serum, retinol, 14-HRR, and the peptide growth factors epidermal growth factor ("EGF") and platelet derived growth factor ("PDGF") are shown. […] NIH 3T3 cells were grown to confluence in Dulbecco's minimal essential medium ("DMEM") containing 10% fetal calf serum in 96-well microliter plates. All media were supplemented with 2 mM glutamine and 100 U/ml of penicillin/streptomycin. Cells were washed once with phosphate-buffered saline solution and incubated for one to four days in 200 μl/well of DMEM media/0.1% fetal calf serum ("starvation media"). On the indicated day, starvation media was replaced with 200 μl/well of insulin, transferrin, linoleic acid, bovine serum albumin ("ITLB") media, with or without fetal calf serum, retinoids, or peptide growth factors at the indicated concentrations. ITLB media is RPMI media (Gibco BRL, Grand Island, N.Y.) containing […] bovine serum albumin (1.2 mg/ml), linoleic acid (10^-6 M), bovine insulin (5 μg/ml), and transferrin (5 μg/ml). [^3 H]thymidine (1.2 μCi per well) was added at the beginning of the experiment, and the thymidine incorporation was determined after 24 h. […]
Cells starved for 4 days in DMEM/0.1% fetal calf serum were activated with 5% fetal calf serum, 2 μM retinol, or 2 μM 14-HRR, and the cumulative thymidine incorporation was determined at the indicated time points. Δcpm corresponds to the increase in [^3 H]thymidine incorporation in the two hour period before the time point shown. […]
Cells starved for 4 days in DMEM/0.1% fetal calf serum were activated with 5% fetal calf serum, 2 μM retinol, or 2 μM 14-HRR. […] The cumulative [^3 H]thymidine incorporation was determined after 24 hours. […]
Confluent NIH 3T3 cells were starved for 1 to 4 days in medium containing 0.1% serum. […] Activation was quantitated by measuring the [^3 H] thymidine incorporated into newly synthesized DNA during the subsequent 24 hours (FIG. 6A). […]

Row | Molecule | Vmax as compared to the native enzyme purified from Sf-21 (retinol dehydratase [1]) [%] | range of binding sites (retinol dehydratase [2]; n=3) | number of (high affinity) binding sites per molecule (retinol dehydratase [2]) [%] | number of (high affinity) binding sites per molecule (retinol dehydratase [2]; listed as recombinant enzyme) [%] | binding sites (retinol dehydratase [2]; titration curves, n=3) | activation of growth arrested cells (thymidine incorporation over 24 hours) (NIH 3T3 cells; cells deprived of serum for 3 or 4 days) | entry of treated cells into the S phase (NIH 3T3 cells; data not shown) | activation of resting cells (NIH 3T3 cells; ≤500 ng/ml)
1 | B1 | 10 | 0.06-0.08 | 8 | 7 | 0.07 |  |  | 
2 | B2 |  |  |  |  |  | had no effect | did not enter the S phase | unable to activate
